The results in this text go back to patent publication US20050026839A1 (GENERAL HOSPITAL, published 2005).

Where two headings read alike, the source gives them in different places. Square brackets hold non-standard residues; d marks the D form. Ends that are not written are not given here. hArg = N=C(N)NCCCC[C@H](N)C(=O)O; Nle = CCCC[C@H](N)C(=O)O; Aib = CC(C)(N)C(=O)O

The target of test [1] is T1, truncated human P1R deleted for residues (24-181) (hP1R-delNt) (human, UniProt Q03431 182-593).
T1 construct: whole, on cells; also called delNT receptor
T1 sequence (looked up): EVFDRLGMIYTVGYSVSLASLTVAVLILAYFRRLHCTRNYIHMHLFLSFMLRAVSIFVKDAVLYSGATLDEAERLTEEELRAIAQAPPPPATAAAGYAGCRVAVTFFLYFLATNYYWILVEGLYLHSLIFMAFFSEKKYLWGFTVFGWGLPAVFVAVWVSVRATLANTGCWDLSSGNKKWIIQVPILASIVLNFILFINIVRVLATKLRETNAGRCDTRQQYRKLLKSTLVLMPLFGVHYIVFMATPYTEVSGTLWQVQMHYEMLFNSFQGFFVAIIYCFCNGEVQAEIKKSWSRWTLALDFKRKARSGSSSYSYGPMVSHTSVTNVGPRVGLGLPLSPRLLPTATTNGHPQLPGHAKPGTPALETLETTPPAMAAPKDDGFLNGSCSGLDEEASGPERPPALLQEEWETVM
Put plainly: radioligand binding, COS-7 cells with P1R-delNt.

Test [2] concerns the target wild-type human PTH/PTHrP receptor (hP1R-WT) (human) (UniProt Q03431). Nature of the test: cell-based or functional assay.
For test [3] the target is unchanged. Put plainly: competition binding, 125I-[M]PTH(1-21) tracer, HKRK-B28 cells.
For test [4], the target named is T2, wild-type human PTH/PTHrP receptor (hP1R-WT) (human, UniProt Q03431 27-593).
T2 sequence (looked up): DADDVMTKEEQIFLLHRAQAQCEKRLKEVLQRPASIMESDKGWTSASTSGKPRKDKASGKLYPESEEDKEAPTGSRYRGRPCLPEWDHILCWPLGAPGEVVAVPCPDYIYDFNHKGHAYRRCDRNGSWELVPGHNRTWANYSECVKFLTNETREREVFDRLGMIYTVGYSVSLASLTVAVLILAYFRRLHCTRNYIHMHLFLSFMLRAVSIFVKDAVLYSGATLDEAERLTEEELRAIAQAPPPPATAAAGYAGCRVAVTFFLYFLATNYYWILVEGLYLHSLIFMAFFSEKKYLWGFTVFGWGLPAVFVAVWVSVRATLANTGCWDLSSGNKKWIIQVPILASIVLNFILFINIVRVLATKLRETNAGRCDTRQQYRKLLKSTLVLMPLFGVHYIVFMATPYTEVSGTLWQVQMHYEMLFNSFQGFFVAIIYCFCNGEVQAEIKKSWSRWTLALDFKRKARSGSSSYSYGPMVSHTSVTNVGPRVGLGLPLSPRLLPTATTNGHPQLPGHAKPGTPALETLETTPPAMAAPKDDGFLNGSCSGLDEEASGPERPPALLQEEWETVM
Put plainly: cell-based or functional assay.

Test [5] addresses T2, wild-type human PTH/PTHrP receptor …. Put plainly: cell-based or functional assay. This is another data set of the same source.
Test [6] addresses T1, truncated human P1R deleted for …. Nature of the test: cell-based or functional assay.
Test [7] concerns the target T2, wild-type human PTH/PTHrP receptor …. Nature of the test: competition binding vs 125I-[Aib1,3,M]PTH(1-21), COS-7 cells with hP1R-WT.
Test [8] has as its target T1, truncated human P1R deleted for …. Nature of the test: competition binding vs 125I-[Aib1,3,M]PTH(1-21), COS-7 cells with hP1R-delNt. The procedure: Stock solutions of EGTA/trypsin and antibiotics were from GIBCO; fetal bovine serum was from Hyclone Laboratories (Logan, Utah). […] All cells, in 24-well plates, were treated with fresh media and shifted to 33° C. for 12 to 24 h prior to assay.
Competition Binding. Binding reactions were performed with HKRK-B28 cells or in COS-7 cells in 24-well plates. The cells were rinsed with 0.5 mL of binding buffer, and then treated successively with 100 μL binding buffer, 100 μL of binding buffer containing various amounts of unlabeled competitor ligand, and 100 μL of binding buffer containing ca. 100,000 cpm of ¹²⁵I-[M]PTH(1-21) or ¹²⁵I-[Aib^{1,3},M]PTH(1-21)} (ca. 26 fmol; final volume=300 μL). Incubations were 4 to 6 h at 4° C., at which time near equilibrium conditions were attained. Cells were then placed on ice, the binding medium was removed, and the monolayer was rinsed three times with 0.5 mL of cold binding buffer. The cells were subsequently lysed with 0.5 mL […] NaOH and counted for radioactivity. For each tracer and in each experiment, the non-specific binding was determined as the radioactivity that bound in the presence of the same unlabeled peptide at a concentration of 1 μM, and was ˜1% of total radioactivity added for each tracer. The maximum specific binding (B₀) was the total radioactivity bound in the absence of competing ligand, corrected for nonspecific binding, and for each tracer, ranged from 8% to 20% of the total radioactivity added. Nonlinear regression was used to calculate binding IC₅₀ values (see below). Scatchard transformations of homologous competition binding data derived from studies with 26 fmol of ¹²⁵I-[Aib^{1,3},M]PTH(1-21) were employed for estimations of apparent equilibrium dissociation constant (kDapps) and total number of ligand binding sites (Bₘₐₓ), assuming a single class of binding sites and equal affinities of the iodinated and non iodinated ligand.

The target is the same in test [9]. Put plainly: cell-based or functional assay. The source holds these as a separate data set.
Test [10] concerns the target T2, wild-type human PTH/PTHrP receptor …. Put plainly: radioligand binding to HKRK-B28 cells.
Test [11] has the same target. Put plainly: cell-based or functional assay. This is another data set of the same source.
Test [12] concerns the target T1, truncated human P1R deleted for …. Put plainly: cell-based or functional assay. This is another data set of the same source.

B1: ^125I-[M]PTH(1-21) (peptide)
peptide: AVAEIQL[Nle]HQ[hArg]AKWLASVRRY-NH2
modifications: also: 125I radioiodinated, residue not given here
notes: Tracer radioligand
On to B1, for which the binding result in test [1] was “no binding”.

B2: [Aib^5,M]PTH(1-14) (peptide)
peptide: AVAE[Aib]QLMHQ[hArg]AKW-NH2
modifications: N-terminus assumed
SMILES: CSCC[C@H](NC(=O)[C@H](CC(C)C)NC(=O)[C@H](CCC(N)=O)NC(=O)C(C)(C)NC(=O)[C@H](CCC(=O)O)NC(=O)[C@H](C)NC(=O)[C@@H](NC(=O)[C@H](C)N)C(C)C)C(=O)N[C@@H](Cc1c[nH]cn1)C(=O)N[C@@H](CCC(N)=O)C(=O)N[C@@H](CCCCNC(=N)N)C(=O)N[C@@H](C)C(=O)N[C@@H](CCCCN)C(=O)N[C@@H](Cc1c[nH]c2ccccc12)C(N)=O
With B2, in test [2], the cAMP EC50 was found to be 66 µM and the cAMP EMax(obs.) is 169 pmole/well. The molecule also showed a fold reduction in affinity relative to [M]PTH(1-14) in test [3] of less than 10 fold.

B3: [Aib^1,3,Gln^10]PTH(1-10) (peptide)
peptide: [Aib]V[Aib]EIQLMHQ-NH2
modifications: N-terminus assumed
SMILES: CC[C@H](C)[C@H](NC(=O)[C@H](CCC(=O)O)NC(=O)C(C)(C)NC(=O)[C@@H](NC(=O)C(C)(C)N)C(C)C)C(=O)N[C@@H](CCC(N)=O)C(=O)N[C@@H](CC(C)C)C(=O)N[C@@H](CCSC)C(=O)N[C@@H](Cc1c[nH]cn1)C(=O)N[C@@H](CCC(N)=O)C(N)=O
notes: also called 684 [Aib^1,3, M]PTH (1-10); [Aib^1,3,M]PTH(1-10)
For B3, the “cAMP EC50” value was 16 µM in test [4], 100 µM in [5] and 53 µM in test [6]. The “cAMP EMax(obs.)” value in test [4] stood at 111 pmole/well; in test [5] it was 120 pmole/well; in test [6], 84 pmole/well. Also, the binding result in test [7] and in test [8] was “no binding” throughout.

B4: [Aib^1,3,Gln^10,Har^11,Ala^12,Trp^14,Arg^19,Tyr^34]hPTH(1-34) (peptide)
peptide: [Aib]V[Aib]EIQLMHQ[hArg]AKWLNSMRRVEWLRKKLQDVHNY-NH2
Regarding B4, the “cAMP EC50” value in test [9] was determined as 1.9 nM.

B5: ^125I-[Ala^3,12Nle^8Gln^10,Har^11,Trp^14,Tyr^15]PTH(1-15)amide (peptide)
peptide: AVAEIQL[Nle]HQ[hArg]AKWY-NH2
modifications: also: 125I radiolabel, iodinated residue not given here
As for B5, the binding result in test [10] was “no binding”.

B6: [Aib^1,3,Tyr^34]-hPTH(1-34) (peptide)
peptide: [Aib]V[Aib]EIQLMHNLGKHLNSMERVEWLRKKLQDVHNY-NH2
As to B6, the “cAMP EC50” value in test [11] came to 0.67 nM; in test [12], 43 nM.
